Laboratory results published in publication PMC3854527.

Columns and labels:
Sub2p wt = molecular target: T1, Sub2p wt (Saccharomyces cerevisiae, UniProt Q07478 1-446); assay: EMSA
T1 sequence: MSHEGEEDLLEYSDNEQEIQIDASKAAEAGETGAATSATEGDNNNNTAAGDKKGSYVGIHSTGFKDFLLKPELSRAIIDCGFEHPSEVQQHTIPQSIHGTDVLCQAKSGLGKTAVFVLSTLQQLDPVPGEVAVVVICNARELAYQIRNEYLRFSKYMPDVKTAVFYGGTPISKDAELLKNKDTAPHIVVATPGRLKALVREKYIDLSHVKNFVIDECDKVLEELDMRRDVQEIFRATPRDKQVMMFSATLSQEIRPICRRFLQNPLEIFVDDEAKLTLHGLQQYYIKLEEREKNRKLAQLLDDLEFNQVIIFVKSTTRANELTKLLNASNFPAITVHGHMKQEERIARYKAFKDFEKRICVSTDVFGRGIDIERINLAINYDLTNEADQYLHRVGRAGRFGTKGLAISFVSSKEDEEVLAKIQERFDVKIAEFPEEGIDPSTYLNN

Sub2p Y12S = molecular target: T2, Sub2p Y12S (Saccharomyces cerevisiae, UniProt Q07478 1-446, Y12S); assay: EMSA
T2 sequence: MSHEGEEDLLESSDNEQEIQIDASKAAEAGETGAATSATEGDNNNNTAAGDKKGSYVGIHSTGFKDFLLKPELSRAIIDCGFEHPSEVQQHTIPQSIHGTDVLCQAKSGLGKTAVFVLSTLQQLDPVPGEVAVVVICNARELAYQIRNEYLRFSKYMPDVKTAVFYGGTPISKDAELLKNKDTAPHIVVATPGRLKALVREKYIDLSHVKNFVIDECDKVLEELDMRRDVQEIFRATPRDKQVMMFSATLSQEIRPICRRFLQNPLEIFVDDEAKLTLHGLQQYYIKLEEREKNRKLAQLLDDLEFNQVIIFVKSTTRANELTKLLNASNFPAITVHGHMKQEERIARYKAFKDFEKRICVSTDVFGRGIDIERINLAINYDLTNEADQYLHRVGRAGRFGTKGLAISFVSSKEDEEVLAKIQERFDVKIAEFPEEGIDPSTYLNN

Q: What does the source list for AGCACCGUAAAGC (ssRNA) [13-mer ssRNA]?
A: binding result (Sub2p wt): binds; binding result (Sub2p Y12S): binds
